Laboratory results published in patent US20190031713A1.

Molecular target: Protein A (on chromatography support) (UniProt P38507)
Test: Protein A column, linear pH gradient

| elution pH from Protein A column | Substance |
| --- | --- |
| 3.7 pH | IgG1 homodimer (unmodified CH3) (antibody) |
| 3.9 pH | IgG1 heterodimer with two IgG1 heavy chains identical but for an H435R/Y436F dipeptide modification in one CH3 domain (from UniProt P01857 1-330) (antibody) |
